B1: Protein Vpr (Human immunodeficiency virus type 1 group M subtype B (isolate BRU/LAI)), P05928 (parent)
chain: MEQAPEDQGPQREPHNEWTLELLEELKNEAVRHFPRIWLHGLGQHIYETYGDTWAGVEAIIRILQQLLFIHFRIGCRHSRIGVTQQRRARNGASRS
B2: Protein Vpx (Simian immunodeficiency virus (isolate PBj14/BCL-3)), P19508 (parent)
chain: MSDPRERIPPGNSGEETIGEAFDWLDRTVEEINRAAVNHLPRELIFQVWRRSWEYWHDEMGMSVSYTKYRYLCLIQKAMFMHCKKGCRCLGGEHGAGGWRPGPPPPPPPGLA

Variants of: B1
Conditions: with DCAF1, Q9Y4B6-3
Target sequence in this assay (Q9Y4B6 other isoform, or with tags, fused parts or gaps): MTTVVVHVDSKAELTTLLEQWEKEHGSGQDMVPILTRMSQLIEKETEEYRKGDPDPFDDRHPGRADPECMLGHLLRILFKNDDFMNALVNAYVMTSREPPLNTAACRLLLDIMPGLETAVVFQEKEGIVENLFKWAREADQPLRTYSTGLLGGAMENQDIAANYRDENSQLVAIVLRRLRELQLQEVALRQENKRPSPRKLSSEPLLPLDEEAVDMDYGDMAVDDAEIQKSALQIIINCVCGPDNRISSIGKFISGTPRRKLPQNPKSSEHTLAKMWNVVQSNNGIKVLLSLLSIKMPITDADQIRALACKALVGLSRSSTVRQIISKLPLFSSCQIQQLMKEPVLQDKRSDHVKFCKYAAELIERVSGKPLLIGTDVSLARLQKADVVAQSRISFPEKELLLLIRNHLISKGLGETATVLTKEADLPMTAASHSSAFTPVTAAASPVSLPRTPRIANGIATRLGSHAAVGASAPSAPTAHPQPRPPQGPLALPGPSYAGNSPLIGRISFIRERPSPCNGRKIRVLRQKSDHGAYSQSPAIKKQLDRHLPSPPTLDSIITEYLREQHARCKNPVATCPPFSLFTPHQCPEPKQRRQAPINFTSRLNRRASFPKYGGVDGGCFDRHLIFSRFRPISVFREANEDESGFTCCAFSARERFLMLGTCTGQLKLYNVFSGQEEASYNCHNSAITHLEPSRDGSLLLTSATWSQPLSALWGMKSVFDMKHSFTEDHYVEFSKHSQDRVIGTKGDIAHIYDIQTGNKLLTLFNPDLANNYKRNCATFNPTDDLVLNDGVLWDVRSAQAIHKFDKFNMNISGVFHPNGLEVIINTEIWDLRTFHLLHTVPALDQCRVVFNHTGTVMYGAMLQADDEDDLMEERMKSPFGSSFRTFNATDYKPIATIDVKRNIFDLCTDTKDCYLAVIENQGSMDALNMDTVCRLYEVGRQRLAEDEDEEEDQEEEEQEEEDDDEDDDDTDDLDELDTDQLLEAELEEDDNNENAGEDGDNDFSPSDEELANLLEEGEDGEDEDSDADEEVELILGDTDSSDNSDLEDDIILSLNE

Row | Variant | effect of a mutation on the interaction
1 | MEQAPEDQGPQREPHNEWTLELLEELKNEAVRHFPRIWLHGLGQHIYETYGDTWAGVEAIIRILRQLLFIHFRIGCRHSRIGVTQQRRARNGASRS | disrupting interaction
2 | Q65A | disrupting interaction

Variants of: B2
Conditions: with DCAF1, Q9Y4B6-3
Target sequence in this assay (Q9Y4B6 other isoform, or with tags, fused parts or gaps): as the sequence (Q9Y4B6 other isoform, or with tags, fused parts or gaps) above

Row | Variant | effect of a mutation on the interaction
3 | MSDPRERIPPGNSGEETIGEAFDWLDRTVEEINRAAVNHLPRELIFQVWRRSWEYWHDEMGMSVSYTKYRYLCLIRKAMFMHCKKGCRCLGGEHGAGGWRPGPPPPPPPGLA | disrupting interaction

— IntAct's records for PubMed 17314515
